Test results as given in patent US20190127454A1 (ACADEMIA SINICA, published 2019).

T1: SCUBE3 (UniProt Q8IX30 21-993, limits assumed)
T1 construct: also called SCUBE3 protein
T1 sequence (looked up): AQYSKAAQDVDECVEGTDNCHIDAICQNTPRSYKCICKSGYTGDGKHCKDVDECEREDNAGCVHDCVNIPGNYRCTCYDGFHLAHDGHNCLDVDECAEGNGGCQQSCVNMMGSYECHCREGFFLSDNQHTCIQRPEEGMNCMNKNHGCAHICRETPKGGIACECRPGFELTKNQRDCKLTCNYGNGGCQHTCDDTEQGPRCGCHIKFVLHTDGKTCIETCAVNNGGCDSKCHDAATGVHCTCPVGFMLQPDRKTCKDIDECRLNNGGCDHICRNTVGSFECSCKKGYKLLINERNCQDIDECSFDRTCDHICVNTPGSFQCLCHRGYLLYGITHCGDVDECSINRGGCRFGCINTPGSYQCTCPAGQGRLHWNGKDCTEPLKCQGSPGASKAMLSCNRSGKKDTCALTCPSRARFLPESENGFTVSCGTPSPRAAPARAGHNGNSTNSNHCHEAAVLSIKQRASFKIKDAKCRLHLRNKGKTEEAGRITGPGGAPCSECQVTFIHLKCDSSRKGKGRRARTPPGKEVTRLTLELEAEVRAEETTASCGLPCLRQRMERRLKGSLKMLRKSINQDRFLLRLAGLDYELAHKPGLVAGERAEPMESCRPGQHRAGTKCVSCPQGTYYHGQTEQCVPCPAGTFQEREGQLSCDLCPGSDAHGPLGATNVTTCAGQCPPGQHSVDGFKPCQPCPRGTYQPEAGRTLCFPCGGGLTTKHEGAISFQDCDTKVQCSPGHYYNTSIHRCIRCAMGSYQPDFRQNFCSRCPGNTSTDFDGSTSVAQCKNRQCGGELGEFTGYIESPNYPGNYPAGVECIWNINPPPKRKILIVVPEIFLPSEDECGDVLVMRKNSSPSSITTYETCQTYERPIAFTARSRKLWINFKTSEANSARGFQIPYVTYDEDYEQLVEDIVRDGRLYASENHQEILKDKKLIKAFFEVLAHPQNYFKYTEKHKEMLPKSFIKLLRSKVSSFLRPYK

T2: SCUBE1 (UniProt Q8IWY4 24-988, limits assumed)
T2 construct: also called SCUBE1 protein
T2 sequence (looked up): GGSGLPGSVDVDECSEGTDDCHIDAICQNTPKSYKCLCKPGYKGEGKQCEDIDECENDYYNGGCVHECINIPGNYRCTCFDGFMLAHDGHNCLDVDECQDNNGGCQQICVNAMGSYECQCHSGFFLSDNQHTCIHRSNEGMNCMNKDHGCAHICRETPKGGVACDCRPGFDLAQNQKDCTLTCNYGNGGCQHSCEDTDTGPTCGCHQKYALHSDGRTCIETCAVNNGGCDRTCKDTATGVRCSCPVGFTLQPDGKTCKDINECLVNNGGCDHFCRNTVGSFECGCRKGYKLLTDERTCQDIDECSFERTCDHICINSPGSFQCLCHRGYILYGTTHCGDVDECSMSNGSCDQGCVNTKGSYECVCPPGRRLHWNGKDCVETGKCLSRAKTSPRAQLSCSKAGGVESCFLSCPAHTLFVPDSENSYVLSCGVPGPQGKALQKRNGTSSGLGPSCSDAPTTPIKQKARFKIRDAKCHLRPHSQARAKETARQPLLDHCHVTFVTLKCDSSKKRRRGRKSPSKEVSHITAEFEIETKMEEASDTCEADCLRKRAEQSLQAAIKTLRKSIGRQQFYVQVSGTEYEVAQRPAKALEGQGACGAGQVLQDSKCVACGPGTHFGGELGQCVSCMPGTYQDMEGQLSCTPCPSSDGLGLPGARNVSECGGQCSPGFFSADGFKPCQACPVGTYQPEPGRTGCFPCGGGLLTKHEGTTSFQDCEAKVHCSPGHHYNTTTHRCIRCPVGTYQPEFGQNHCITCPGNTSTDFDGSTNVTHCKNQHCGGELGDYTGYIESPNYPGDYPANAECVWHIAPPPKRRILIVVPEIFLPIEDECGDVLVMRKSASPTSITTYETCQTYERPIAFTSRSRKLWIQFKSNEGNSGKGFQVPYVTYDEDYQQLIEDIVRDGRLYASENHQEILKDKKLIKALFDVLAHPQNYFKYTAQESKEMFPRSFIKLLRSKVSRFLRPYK

B1: anti-SCUBE2 mAb clone EGF-C3 (antibody, IgG2a, V domains shown)
VH: EVKLVESGGGLVQPGGSRKLSCVASGFTISSFGMHWVRQAPERGLEWVAYISSGSNTIYYADTVKGRFTISRDNPKNTLFLQMTSLWSEDTAMYYCARSGTLDGWFTYWGRGTLVTVST
VL: DIVMTQPPLSLPVSLGDQASISCRSSQSILHSNGNTYLEWYLQKPGQSPKLLIYKLFNRFSGVPDRFNGSGSGTDFTLKISRAEAEDLGVYYCLQGSHVPPTFGAGTKLEIK
B2: anti-SCUBE2 mAb clone SP-A1 (antibody, IgG1, V domains shown)
VH: EVQLQQSGPELVKPGASVKVSCKASGYAFTSYNMYWVKQSHGKSLEWIGYIDPYNGDTNNNQKFKGKATLTVDKSSSTAYMHLNSLTSEDSAVYYCARSYRYLAWFAYWGQGTLVTVSA
VL: DIVMTQSPLSLPVSLGDQASISCRSSQSIVHSNGNTYLEWYLQKPGQSPKLLIYTVSNRFSGVPDRFSGSGSGTDFTLRISRVEAEDLGVYYCFQGSHIPYTFGGGTKLELK
notes: Mouse hybridoma mAb, IgG1
B3: anti-SCUBE2 mAb clone SP-B1 (antibody, IgG1, V domains shown)
VH: B2 VH
VL: B2 VL
notes: also called SP.B1 mAb
B4: recombinant VEGF165 protein (ligand, UniProt P15692-4 27-191, looked up)
chain: APMAEGGGQNHHEVVKFMDVYQRSYCHPIETLVDIFQEYPDEIEYIFKPSCVPLMRCGGCCNDEGLECVPTEESNITMQIMRIKPHQGQHIGEMSFLQHNKCECRPKKDRARQENPCGPCSERRKHLFVQDPQTCKCSCKNTDSRCKARQLELNERTCRCDKPRR
notes: Bought reagent; also called VEGF-A165
B5: anti-SCUBE2 mAb clone SP-B2 (antibody, IgG1, V domains shown)
VH: EVQRVESGGGLVKPGGSLKLSCAASGFTFRNYAMSWVRQTTEKKLEWVATINDVGSYTYFPASVKGRFTVSRDNTKNTLYLQMSSLRSEDTAMYYCVTSSDTVPHHHALDYWGQGSSVTVSS
VL: DIVMTQPPASLAVSLGQRATVFCRASQNVDSRGISFMHWYQQKPGQPPKLLIYAASNLESGIPARFRGSGSGTDFTLNIHPVEEEDVATYYCQQSVEDLTFGGGTKLELK
B6: human SCUBE2 (Signal peptide-CUB-EGF domain-containing protein 2) (receptor)
chain: RAAGPQEDVDECAQGLDDCHADALCQNTPTSYKCSCKPGYQGEGRQCEDIDECGNELNGGCVHDCLNIPGNYRCTCFDGFMLAHDGHNCLDVDECLENNGGCQHTCVNVMGSYECCCKEGFFLSDNQHTCIHRSEEGLSCMNKDHGCSHICKEAPRGSVACECRPGFELAKNQRDCILTCNHGNGGCQHSCDDTADGPECSCHPQYKMHTDGRSCLEREDTVLEVTESNTTSVVDGDKRVKRRLLMETCAVNNGGCDRTCKDTSTGVHCSCPVGFTLQLDGKTCKDIDECQTRNGGCDHFCKNIVGSFDCGCKKGFKLLTDEKSCQDVDECSLDRTCDHSCINHPGTFACACNRGYTLYGFTHCGDTNECSINNGGCQQVCVNTVGSYECQCHPGYKLHWNKKDCVEVKGLLPTSVSPRVSLHCGKSGGGDGCFLRCHSGIHLSSGLQGAYSVTCGSSSPLRNKQQKSNDSAFGDVTTIRTSVTFKLNEGKCSLKNAELFPEGLRPALPEKHSSVKESFRYVNLTCSSGKQVPGAPGRPSTPKEMFITVEFELETNQKEVTASCDLSCIVKRTEKRLRKAIRTLRKAVHREQFHLQLSGMNLDVAKKPPRTSERQAESCGVGQGHAENQCVSCRAGTYYDGARERCILCPNGTFQNEEGQMTCEPCPRPGNSGALKTPEAWNMSECGGLCQPGEYSADGFAPCQLCALGTFQPEAGRTSCFPCGGGLATKHQGATSFQDCETRVQCSPGHFYNTTTHRCIRCPVGTYQPEFGKNNCVSCPGNTTTDFDGSTNITQCKNRRCGGELGDFTGYIESPNYPGNYPANTECTWTINPPPKRRILIVVPEIFLPIEDDCGDYLVMRKTSSSNSVTTYETCQTYERPIAFTSRSKKLWIQFKSNEGNSARGFQVPYVTYDEDYQELIEDIVRDGRLYASENHQEILKDKKLIKALFDVLAHPQNYFKYTAQESREMFPRSFIRLLRSKVSRFLRPYK
notes: Signal peptide a.a; 1-37 and mature protein a.a; also GST.SCUBE2-CUB); also called FLAG.SCUBE2-FL; FLAG-tagged SCUBE2
B7: anti-SCUBE2 mAb clone CR-#5 (antibody, IgG2b, V domains shown)
VH: EVQRVESGGDLVKPGGTLKLSCAASGFTFRNYGMSWVRQTPDKRLEWVATISSGGVYIYYPDSVKGRFTISRDNAKNTLFLQMSSLRSEDSAMYYCARDDYDGRGYFDYWGQGTTLTVSS
VL: DIVMSQSPSSLAVSAGEKVTMSCKSSQSLLNSRTRKNYLAWYQQKPGQSPKLLIYWASTRESGVPDRFTGSGSGTDFTLTISSVQAEDLAVYYCKQSYNLPTFGSGTKLDIK

Columns and labels:
[1] = target: B6; test: domain mapping (FIG. 12A); method not described
SCUBE3 [2] = target: T1, SCUBE3; test: western blot of recombinant SCUBE proteins expressed in HEK-293T cells (FIG. 13A)
SCUBE1 [3] = target: T2, SCUBE1; test: as above
SCUBE3 [4] = target: T1, SCUBE3; test: co-immunoprecipitation
SCUBE1 [5] = target: T2, SCUBE1; test: co-immunoprecipitation
EGFR = EGFR (UniProt P00533 25-1210, limits assumed); test: co-immunoprecipitation with anti-SCUBE2 antibody
VEGFR1 = VEGFR1 (UniProt P17948 27-1338, limits assumed); test: co-immunoprecipitation with anti-SCUBE2 antibody
Sequence of VEGFR1 (P17948 27-1338 limits assumed): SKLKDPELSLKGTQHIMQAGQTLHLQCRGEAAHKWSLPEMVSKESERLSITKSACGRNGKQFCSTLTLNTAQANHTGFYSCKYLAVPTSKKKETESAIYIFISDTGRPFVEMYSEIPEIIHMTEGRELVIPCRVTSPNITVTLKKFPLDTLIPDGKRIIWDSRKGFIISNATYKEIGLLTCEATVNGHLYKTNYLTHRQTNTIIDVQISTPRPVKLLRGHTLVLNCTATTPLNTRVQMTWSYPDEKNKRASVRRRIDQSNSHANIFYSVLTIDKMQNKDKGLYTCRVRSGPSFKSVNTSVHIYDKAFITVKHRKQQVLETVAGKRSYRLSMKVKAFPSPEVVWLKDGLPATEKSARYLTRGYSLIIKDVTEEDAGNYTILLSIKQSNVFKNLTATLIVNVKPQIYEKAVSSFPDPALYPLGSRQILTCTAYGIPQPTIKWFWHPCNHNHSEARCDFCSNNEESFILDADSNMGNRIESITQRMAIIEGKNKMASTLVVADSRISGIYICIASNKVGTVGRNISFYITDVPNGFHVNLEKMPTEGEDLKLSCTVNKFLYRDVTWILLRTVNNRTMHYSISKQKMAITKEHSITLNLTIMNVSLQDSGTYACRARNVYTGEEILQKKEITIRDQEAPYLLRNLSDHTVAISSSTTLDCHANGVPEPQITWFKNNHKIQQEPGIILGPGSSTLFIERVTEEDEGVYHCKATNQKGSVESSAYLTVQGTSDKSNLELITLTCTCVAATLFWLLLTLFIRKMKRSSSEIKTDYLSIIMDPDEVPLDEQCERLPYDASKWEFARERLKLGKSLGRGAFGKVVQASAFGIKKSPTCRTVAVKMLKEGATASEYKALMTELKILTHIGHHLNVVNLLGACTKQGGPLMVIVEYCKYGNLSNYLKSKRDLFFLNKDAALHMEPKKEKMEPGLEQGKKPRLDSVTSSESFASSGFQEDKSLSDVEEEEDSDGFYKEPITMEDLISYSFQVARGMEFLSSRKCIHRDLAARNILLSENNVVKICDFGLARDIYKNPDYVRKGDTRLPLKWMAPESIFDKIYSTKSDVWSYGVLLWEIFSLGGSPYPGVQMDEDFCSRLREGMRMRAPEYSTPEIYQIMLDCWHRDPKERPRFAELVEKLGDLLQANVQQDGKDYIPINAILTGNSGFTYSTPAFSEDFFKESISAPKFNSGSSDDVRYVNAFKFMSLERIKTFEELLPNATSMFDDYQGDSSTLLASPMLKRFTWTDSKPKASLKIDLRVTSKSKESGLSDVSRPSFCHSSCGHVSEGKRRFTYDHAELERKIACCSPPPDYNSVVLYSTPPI

Binder: B1
- binding result [1]: binds

Binder: B2
- binding result [1]: binds

Binder: B3
- binding result (SCUBE3 [2]): no binding
- binding result (SCUBE1 [3]): no binding
- binding result [1]: binds

Binder: B4
- binding result (SCUBE3 [4]): no binding
- binding result (SCUBE1 [5]): no binding

Binder: B5
- binding result [1]: binds

Binder: B6
- binding result (EGFR): no binding
- binding result (VEGFR1): no binding

Binder: B7
- binding result [1]: binds
